The data set deals with the molecule itself. The data set can be described thus: X-ray crystal structure (self-association of subunits). The method, then:
The crystals were moved into 0.15M sodium citrate buffer (pH 5.6) containing 25% glycerol and 1.5M ammonium phosphate, and rapidly cooled to −173° C. by blowing nitrogen gas. The X-ray diffraction data of PtALD native crystals was collected using an X-ray diffractometer R-AXIS V++ (Rigaku Co., Ltd.) at the Photon Factory Beamline 6B of the High Energy Accelerator Research Organization (Tsukuba, Japan). The X-ray wavelength was fixed at 1.0 angstrom and the distance from the crystal to an imaging plate detector was 180 mm. Exposure time and an oscillation angle per one imaging plate frame were 120 sec and 0.8°, respectively, and the data for 150 frames was collected. In the crystallographic parameters, the space group was P6₃22, and the lattice constants were a=94.38 angstrom and c=111.49 angstrom. The asymmetric unit contains one aldolase molecule, and the water content of the crystal was 60%. The crystal was diffracted to approximately 1.5 angstrom resolution. The data processing was made with a program Crystal Clear (Rigaku Co., Ltd.). The Rmerge, which indicates the quality of the data, was 0.097 between 40.0-1.5 angstrom resolution, and 0.260 between 1.55-1.50 angstrom resolution in the most outer shell. The completeness of the data was 99.2% between 40.0-1.5 angstrom resolution, and 99.9% between 1.55-1.50 angstrom resolution in the most outer shell. […]

The source of these data is patent US20050244939A1 (AJINOMOTO, published 2005).

B1: aldolase derived from Pseudomonas taetrolens ATCC4683 (PtALD), wild-type (enzyme)
chain: MSLPGSRIYPSPPQAPRSLLDAFQNVVTPHISDNLGRHIGARGLTRYNHTGKLVGTALTVKTRPGDNLYIYKALTLIEPGHVLVIDAQGDATNAVIGELIKLYAQQRGCVGFVVDGAIRDVASFEDTPCYARSVVHCGPYKSGPGEINVPVSIGGMIINPGDIIVGDEDGLVAFSPDHAEQVLVKAREHDAHEQQVKAEIATGAIDQSWLDKVLEKAGLAN
notes: It was purified and crystallised; The asymmetric unit contains one subunit; also called IHOG aldolase; recombinant PtALD
For the protein B1, the binding result is given as “binds”.
